From patent publication US20230272113A1

B1: FL-52 (scFv)
scFv: QVTLKESGPTLVKPTETLTLTCTFSGFSLRYARMGVSWIRQPPGKCLEWLAHIFSNDEKSYSTSLKSRLTISKDTSKSQVVLTLTNMDPVDTATYFCARMPEYSSGWSGAFDIWGQGTMVTVSSGGGGSGGGGSGGGGSDIQMTQSPSSLSASVGDRVTITCRASQDIRNDLAWYQQKPGKAPKRLIYAASSLQSGVPSRFSGSGSGTEFTLTISSLQPEDFATYYCLQHNSYPLTFGCGTKLEIK
B2: FL-53 (scFv)
scFv: QVQLVESGGGVVQPGRSLRLSCAASGFTFSSYGMHWVRQAPGKCLEWVAVISYDGSNEFYADSVKGRFTISRDNSKNTLYLQMNSLRAEDTAVYYCARGGEITMVRGVIGYYYYGMDVWGQGTTVTVSSGGGGSGGGGSGGGGSDIQMTQSPSSLSASVGDRVTITCRTSQSISSYLNWYQQKPGKAPKLLIYAASSLQSGVPSRFSGSGSGTEFTLTISSLQPEDFATYYCLQHNSYPLTFGCGTKVDIK
B3: FL-56 (scFv)
scFv: QVTLKESGPVLVKPTETLTLTCTVSGFSLRNVRMGVSWIRQPPGKALEWLAHIFSNDEKLYTTSLKSRLTISKDTSKSQVVLTMTNMDPEDTATYYCARIVGYGTGWYGYFDYWGQGTQVTVSSGGGGSGGGGSGGGGSDIQMTQSPSSLSASIGDRVTITCRASQDIRDDLGWYQREPGKAPKRLIYATSIRQSGVPSRFSGSGSGTEFTLTISGLQPEDFATYFCLQHHSFPLTFGGGTKVDIK
B4: FL-51 (scFv)
scFv: QVTLKESGPTLVKPTETLTLTCTVSGFSLRNVRMGVSWIRQPPGKCLEWLAHISSNDEKSYSTSLRSRLTISTDTSKSQVVLTMTNMDPVDTATYYCARMPGDSNTWRGFFDYWGQGTLVTVSSGGGGSGGGGSGGGGSEIVMTQSPATLSVSPGERATLSCRTSQSVNNNLAWYQQKPGQAPRLLIYGASTRATGIPARFSGSGSGTEFTLTISSLQPEDFATYYCLQHNSYPLTFGCGTKVEIK
B5: FL-58 (scFv)
scFv: QVTLKESGPTLVKPTETLTLTCTVSGFSLRNVRMGVSWIRQPPGKALEWLAHISSNDEKSYSTSLRSRLTISTDTSKSQVVLTMTNMDPVDTATYYCARMPGDSNTWRGFFDYWGQGTLVTVSSGGGGSGGGGSGGGGSEIVMTQSPATLSVSPGERATLSCRTSQSVNNNLAWYQQKPGQAPRLLIYGASTRATGIPARFSGSGSGTEFTLTISSLQPEDFATYYCLQHNSYPLTFGGGTKVEIK
B6: FL-59 (scFv)
scFv: QVTLKESGPMLVKPTETLTLTCTVSGFSLRNVRMGVSWIRQPPGKALEWLAHIFSNDEKSYSTSLKSRLTISKDTSKSQVVLTLTNMDPVDTATYFCARMPEYSSGWSGAFDIWGQGTMVTVSSGGGGSGGGGSGGGGSDIQMTQSPSSLSASVGDRVTITCRASQDIRDDLGWYQQKPGNAPKRLIYGASTLQSGVPSRFSGSGSGTEFTLTISSLQPEDFATYYCLQHNSYPLTFGGGTRLEIK
B7: FL-57 (scFv)
scFv: QVTLKESGPTLVKPTETLTLTCTFSGFSLRYARMGVSWIRQPPGKALEWLAHISSNDEKSFSTALESRLTISTDTSKSQMVLTMTNVDPVDTATYYCARMPGDSNTWRGFFDYWGQGTLVTVSSGGGGSGGGGSGGGGSEIVMTQSPGTLSLSPGERATLSCRTSQTVTNSYIAWYQQRPGQAPRLLIYGTSTRATGIPDRFSGSGSGTDFTLTISRLEPEDFAVYYCQKYGSSPLTFGGGTKLEIK
B8: FL-54 (scFv)
scFv: QVQLVESGGGVVQPGRSLRLSCAASGFTFSSYGMHWVRQAPGKCLEWVAVISYDGSNEFYADSVKGRFTISRDNSKNTLYLQMNSLRAEDTAVYYCARGGEITMVRGVIGYYYYGMDVWGQGTTVTVSSGGGGSGGGGSGGGGSEIVMTQSPATLSVSPGERATLSCRASQGVRNNLVWYQQKPGQAPRLLIYGASTRATGIPARFSGSGSGTEFTLTISSLQSEDFATYYCLQHNSYPLTFGCGTKVEIK

Target: human FLT3 on transfected CHO cells (human) (UniProt P36888)
Experiment: FACS, scFv on CHO-human FLT3 cells pre-incubated with FLT3 ligand (competitor)

Median [+ligand]/median [w/o ligand]*100, > 75%:
B1
B2
B3
B4
B5
B6
B7
B8
